Assay [1] deals with T1, human GITR-Fc (human, UniProt Q9Y5U5 26-162, conjugated with europium cryptate in the HTRF assays).
T1 construct: also called hGITR-Fc; hGITRFc; not shown: Fc domain of hIgG1
T1 sequence: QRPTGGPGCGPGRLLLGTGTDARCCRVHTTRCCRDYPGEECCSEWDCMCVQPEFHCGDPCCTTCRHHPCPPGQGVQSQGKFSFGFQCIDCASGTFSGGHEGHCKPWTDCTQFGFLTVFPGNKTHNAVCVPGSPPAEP
Kind of assay: HTRF competition; competitor GITRL-HA on GITR-Fc. Here is the method:
The effect of the hexameric GITRL FP molecules on human GITRL binding to human GITR was determined using a Homogeneous Time Resolved Fluorescence (HTRF) assay.
The hexameric GITRL FP molecules were titrated into an HTRF assay in which binding of GITRL-HA (hemagglutinin tag) to GITR-Fc was measured. The human GITR Fc was conjugated with europium cryptate and an anti-HA antibody conjugated with XL665 was used to detect the GITRL-HA protein. IC₅₀ values were determined by curve fitting the analyzed data to a four parameter logistic equation with Prism 5.01 software (GraphPad).
Background: Time-resolved FRET reads energy transfer from a long-lived donor to a nearby acceptor.

Assay [2] has as its target T2, human GITR expressed on cells (human, UniProt Q9Y5U5 26-241).
T2 sequence: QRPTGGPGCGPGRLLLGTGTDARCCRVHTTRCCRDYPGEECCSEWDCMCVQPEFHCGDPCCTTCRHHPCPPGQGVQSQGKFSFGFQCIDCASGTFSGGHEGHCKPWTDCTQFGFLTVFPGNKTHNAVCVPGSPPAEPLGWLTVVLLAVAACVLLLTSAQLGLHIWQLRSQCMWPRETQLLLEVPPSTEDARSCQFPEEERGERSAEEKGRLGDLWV
In words: cell-based or functional assay.

Assay [3] concerns the target T1, human GITR-Fc. In words: HTRF direct binding, Eu cryptate hGITR-Fc and anti-FLAG XL665, one site saturation fit. Here is the method: The hGITRL FP molecules were titrated into an HTRF assay in which binding of the hGITRL FP to hGITR-Fc was measured. The human hGITR Fc was conjugated with europium cryptate and an anti-FLAG antibody conjugated with XL665 was used to detect the hGITRL FP protein. KD values were determined by curve fitting the analyzed data to a one site saturation binding equation with Prism 5.01 software (GraphPad).

The target in assay [4] is T1, human GITR-Fc. In words: HTRF competition: titrated FP against binding of GITRL-HA (anti-HA XL665) to europium cryptate hGITR-Fc. Here is the method: (§1) The effect of the GITRL FP molecules on human GITRL binding to human GITR was determined using a Homogeneous Time Resolved Fluorescence (HTRF) assay.
(§2) The GITRL FP molecules were titrated into an HTRF assay in which binding of GITRL-HA (hemagglutinin tag) to GITR-Fc was measured. The human GITR Fc was conjugated with europium cryptate and an anti-HA antibody conjugated with XL665 was used to detect the GITRL-HA protein. IC₅₀ values were determined by curve fitting the analyzed data to a four parameter logistic equation with Prism 5.01 software (GraphPad).

The target in assay [5] is T1, human GITR-Fc. The description is as above. Here is the method: as §1, §2
This is another data set of the same source.

The record followed here is patent US20170073386A1 (AstraZeneca / MedImmune, published 2017).

As a reminder, the IC50 is the point on the concentration scale where inhibition reaches its midpoint. A higher IC50 goes with lower potency. What is called Kd is the concentration at which binding is half-saturated. A high value points to lower affinity.

B1: hexameric GITRL FP (GCN4 pII) (Fc fusion, not shown: a dimerising Fc or GST; small tags and cut ends)
chain (part 1 of 2): not shown
chain (part 2 of 2): LQLETAKEPCMAKFGPLPSKWQMASSEPPCVNKVSDWKLEILQNGLYLIYGQVAPNANYNDVAPFEVRLYKNKDMIQTLTNKSKIQNVGGTYELHVGDTIDLIFNSEHQVLKNNTYWGIILLANPQFIS
In turn, B1 displayed an IC50 with human GITR-Fc [1] of 1.06 nM. The “EC50 (nM), human GITR transfected NF-κB luciferase gene reporter cell line” value (shortened to “EC50 (nM)”) in assay [2] came to 1.02 nM.

B2: hexameric GITRL FP (Matrilin 1 wt) (Fc fusion, not shown: a dimerising Fc or GST; small tags and cut ends)
chain (part 1 of 2): CACESLVKFQAKVEGLLQALTRKLEAVSKRLAILENTVV
chain (part 2 of 2): LQLETAKEPCMAKFGPLPSKWQMASSEPPCVNKVSDWKLEILQNGLYLIYGQVAPNANYNDVAPFEVRLYKNKDMIQTLTNKSKIQNVGGTYELHVGDTIDLIFNSEHQVLKNNTYWGIILLANPQFIS
The molecule B2 registered an IC50 with human GITR-Fc [1] of 1.36 nM. Besides, in assay [2], the “EC50 (nM)” value was 1.12 nM.

B3: hexameric GITRL FP (Coronin 1a wt) (Fc fusion, not shown: a dimerising Fc or GST; small tags and cut ends)
chain (part 1 of 2): VSRLEEEMRKLQATVQELQKRLDRLEETVQAK
chain (part 2 of 2): LQLETAKEPCMAKFGPLPSKWQMASSEPPCVNKVSDWKLEILQNGLYLIYGQVAPNANYNDVAPFEVRLYKNKDMIQTLTNKSKIQNVGGTYELHVGDTIDLIFNSEHQVLKNNTYWGIILLANPQFIS
In the case of B3, in the assay with human GITR-Fc [1], the IC50 was 0.61 nM. Moreover, in assay [2], the “EC50 (nM)” value is 0.95 nM.

B4: hexameric GITRL FP (DMPK wt) (Fc fusion, not shown: a dimerising Fc or GST; small tags and cut ends)
chain (part 1 of 2): EAEAEVTLRELQEALEEEVLTRQSLSREMEAIRTDNQNFASQLREAEARNRDLEAHVRQLQERMELLQAE
chain (part 2 of 2): LQLETAKEPCMAKFGPLPSKWQMASSEPPCVNKVSDWKLEILQNGLYLIYGQVAPNANYNDVAPFEVRLYKNKDMIQTLTNKSKIQNVGGTYELHVGDTIDLIFNSEHQVLKNNTYWGIILLANPQFIS
In the case of B4, the concentration for half-maximal inhibition (IC50) with human GITR-Fc [1] turned out to be 2.73 nM. Also, the “EC50 (nM)” value in assay [2] stood at 1.37 nM.

B5: hGITRL FP N129A (Fc fusion)
chain: LQLETAKEPCMAKFGPLPSKWQMASSEPPCVNKVSDWKLEILQNGLYLIYGQVAPNANYNDVAPFEVRLYKNKDMIQTLTAKSKIQNVGGTYELHVGDTIDLIFNSEHQVLKNNTYWGIILLANPQFIS
notes: also called N129A mutated hGITRL FP; not shown: detection with anti-FLAG antibody implies a FLAG e
The molecule B5 displayed a Kd in the assay with human GITR-Fc [3] of 3.77 nM.

B6: hexameric GITRL FP (Matrilin 1 variant) (Fc fusion, not shown: a dimerising Fc or GST; small tags and cut ends)
chain (part 1 of 2): CACESLVKFQAKVEGLIQALTRKLEAVSKRIAILENTVV
chain (part 2 of 2): LQLETAKEPCMAKFGPLPSKWQMASSEPPCVNKVSDWKLEILQNGLYLIYGQVAPNANYNDVAPFEVRLYKNKDMIQTLTNKSKIQNVGGTYELHVGDTIDLIFNSEHQVLKNNTYWGIILLANPQFIS
On to B6, for which the IC50 with human GITR-Fc [1] is 0.83 nM. For the same molecule, the “EC50 (nM)” value in assay [2] turned out to be 0.9 nM.

B7: hGITRL FP N104D (Fc fusion, not shown: a dimerising Fc or GST)
chain: LQLETAKEPCMAKFGPLPSKWQMASSEPPCVNKVSDWKLEILQNGLYLIYGQVAPDANYNDVAPFEVRLYKNKDMIQTLTNKSKIQNVGGTYELHVGDTIDLIFNSEHQVLKNNTYWGIILLANPQFIS
notes: also called N104D GITRL FP
The molecule B7 had an IC50 with human GITR-Fc [4] of 0.529 nM.

B8: hGITRL FP N92D (Fc fusion, not shown: a dimerising Fc or GST)
chain: LQLETAKEPCMAKFGPLPSKWQMASSEPPCVNKVSDWKLEILQDGLYLIYGQVAPNANYNDVAPFEVRLYKNKDMIQTLTNKSKIQNVGGTYELHVGDTIDLIFNSEHQVLKNNTYWGIILLANPQFIS
On to B8, for which the IC50 with human GITR-Fc [4] came to 0.587 nM.

B9: hexameric GITRL FP (Langerin variant) (Fc fusion, not shown: a dimerising Fc or GST; small tags and cut ends)
chain (part 1 of 2): ISALNTKIRAIQGSIENMSKLIKRQNDIIQVVS
chain (part 2 of 2): LQLETAKEPCMAKFGPLPSKWQMASSEPPCVNKVSDWKLEILQNGLYLIYGQVAPNANYNDVAPFEVRLYKNKDMIQTLTNKSKIQNVGGTYELHVGDTIDLIFNSEHQVLKNNTYWGIILLANPQFIS
In the case of B9, in the assay with human GITR-Fc [1], the half-maximal inhibitory concentration (IC50) is 2 nM. Also, the “EC50 (nM)” value in assay [2] turned out to be 0.75 nM.

B10: hexameric GITRL FP (Coronin 1a variant) (Fc fusion, not shown: a dimerising Fc or GST; small tags and cut ends)
chain (part 1 of 2): ISRIEEEIRKINATVQELQKRIDRLEETVQAK
chain (part 2 of 2): LQLETAKEPCMAKFGPLPSKWQMASSEPPCVNKVSDWKLEILQNGLYLIYGQVAPNANYNDVAPFEVRLYKNKDMIQTLTNKSKIQNVGGTYELHVGDTIDLIFNSEHQVLKNNTYWGIILLANPQFIS
In the assay with human GITR-Fc [1], B10 showed an IC50 of 1.44 nM. Further, the “EC50 (nM)” value in assay [2] was 0.74 nM.

B11: hexameric GITRL FP (DMPK variant) (Fc fusion, not shown: a dimerising Fc or GST; small tags and cut ends)
chain (part 1 of 2): IAEIEVTIRELQEAIEEEVLTRQSLSREIEAIRTDIQNIASQLREIEARIRDLEAHVRQLQERMELLQAE
chain (part 2 of 2): LQLETAKEPCMAKFGPLPSKWQMASSEPPCVNKVSDWKLEILQNGLYLIYGQVAPNANYNDVAPFEVRLYKNKDMIQTLTNKSKIQNVGGTYELHVGDTIDLIFNSEHQVLKNNTYWGIILLANPQFIS
As for B11, the IC50 in the assay with human GITR-Fc [1] is 2.43 nM. For the same molecule, in assay [2], the “EC50 (nM)” value was determined as 1.39 nM.

B12: hGITRL FP N129A/N161D (Fc fusion)
chain: LQLETAKEPCMAKFGPLPSKWQMASSEPPCVNKVSDWKLEILQNGLYLIYGQVAPNANYNDVAPFEVRLYKNKDMIQTLTAKSKIQNVGGTYELHVGDTIDLIFNSEHQVLKDNTYWGIILLANPQFIS
notes: not shown: detection with anti-FLAG antibody implies a FLAG e
In the assay with human GITR-Fc [3], B12 yielded a Kd of 11.8 nM.

B13: hGITRL FP wt (Fc fusion)
chain: QLETAKEPCMAKFGPLPSKWQMASSEPPCVNKVSDWKLEILQNGLYLIYGQVAPNANYNDVAPFEVRLYKNKDMIQTLTNKSKIQNVGGTYELHVGDTIDLIFNSEHQVLKNNTYWGIILLANPQFIS
notes: as for B12
Take B13: the figures for the IC50 with human GITR-Fc [4] and with human GITR-Fc [5] were 0.631 nM and 0.696 nM, respectively. Further, in the assay with human GITR-Fc [3], the Kd turned out to be 1.23 nM.

B14: hGITRL FP N161D (Fc fusion)
chain: QLETAKEPCMAKFGPLPSKWQMASSEPPCVNKVSDWKLEILQNGLYLIYGQVAPNANYNDVAPFEVRLYKNKDMIQTLTNKSKIQNVGGTYELHVGDTIDLIFNSEHQVLKDNTYWGIILLANPQFIS
notes: as for B12
In the case of B14, the IC50 with human GITR-Fc [5] is 0.63 nM. In the assay with human GITR-Fc [3], this molecule displayed a Kd of 1.08 nM.
